Results on four molecules are retold here after US20230151091A1 (NEW YORK UNIVERSITY, published 2023).

As a reminder, the Kd is the constant that tells how readily two partners part at equilibrium. The term koff denotes the rate constant with which the complex falls apart. The kon is the second-order rate constant of association.

The target of experiment [1] is T1, hFz: Fz domain and C-terminal flanking sequence of human MuSK (K314-T495) with C-terminal Avi- and His6-tags (human, UniProt O15146 314-495, biotinylated in vitro using the BirA enzyme).
T1 construct: also called human Fz; not shown: Avi- and His6-tags
T1 sequence: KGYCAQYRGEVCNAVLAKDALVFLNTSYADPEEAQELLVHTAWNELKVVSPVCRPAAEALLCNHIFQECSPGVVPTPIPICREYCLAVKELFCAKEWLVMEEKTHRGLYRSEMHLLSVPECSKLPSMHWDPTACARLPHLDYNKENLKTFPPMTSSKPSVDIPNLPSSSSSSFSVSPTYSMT
As to the kind of experiment: bead-binding assay, Fab format: biotinylated antigen on streptavidin beads, flow cytometry, 1:1 fit; average ± s.d., n=3. Background: A flow cytometer gives signals particle by particle.

Experiment [2] deals with T2, mFz: Fz domain and C-terminal flanking sequence of mouse MuSK (D307 to T494) with C-terminal Avi- and … (mouse, UniProt Q61006 307-494, limits assumed, biotinylated in vitro using the BirA enzyme).
T2 construct: also called mouse Fz; not shown: Avi- and His6-tags
T2 sequence (looked up): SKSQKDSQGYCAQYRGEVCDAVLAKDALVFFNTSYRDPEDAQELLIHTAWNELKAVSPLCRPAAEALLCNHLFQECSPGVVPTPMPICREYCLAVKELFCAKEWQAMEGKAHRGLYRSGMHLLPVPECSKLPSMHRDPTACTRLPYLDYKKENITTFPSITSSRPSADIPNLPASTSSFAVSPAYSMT
The description is as above.

Experiment [3] concerns the target T3, hECD: full-length extracellular region of human MuSK (E22 to T495) with C-terminal Avi- and His6-tags (human, UniProt O15146 22-495, biotinylated in vitro using the BirA enzyme).
T3 construct: also called human ECD; not shown: Avi- and His6-tags
T3 sequence: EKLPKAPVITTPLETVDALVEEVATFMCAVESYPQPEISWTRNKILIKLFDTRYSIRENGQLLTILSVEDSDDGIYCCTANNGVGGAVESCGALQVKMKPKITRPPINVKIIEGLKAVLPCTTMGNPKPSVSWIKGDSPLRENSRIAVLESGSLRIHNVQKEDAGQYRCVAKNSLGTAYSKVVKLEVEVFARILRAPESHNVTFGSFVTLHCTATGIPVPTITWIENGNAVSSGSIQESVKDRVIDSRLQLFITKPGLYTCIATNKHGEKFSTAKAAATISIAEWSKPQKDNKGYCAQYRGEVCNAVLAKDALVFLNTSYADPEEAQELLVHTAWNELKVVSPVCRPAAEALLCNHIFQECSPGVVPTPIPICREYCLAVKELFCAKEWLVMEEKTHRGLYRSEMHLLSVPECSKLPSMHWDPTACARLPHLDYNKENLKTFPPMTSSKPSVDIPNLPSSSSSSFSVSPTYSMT
The description is as above.

In experiment [4] the target is T4, mECD: full-length extracellular region of mouse MuSK (E22 to T494) with C-terminal Avi- and His6-tags (mouse, UniProt Q61006 22-494, biotinylated in vitro using the BirA enzyme).
T4 construct: range 22-494; also called mouse ECD; not shown: Avi- and His6-tags
T4 sequence (looked up): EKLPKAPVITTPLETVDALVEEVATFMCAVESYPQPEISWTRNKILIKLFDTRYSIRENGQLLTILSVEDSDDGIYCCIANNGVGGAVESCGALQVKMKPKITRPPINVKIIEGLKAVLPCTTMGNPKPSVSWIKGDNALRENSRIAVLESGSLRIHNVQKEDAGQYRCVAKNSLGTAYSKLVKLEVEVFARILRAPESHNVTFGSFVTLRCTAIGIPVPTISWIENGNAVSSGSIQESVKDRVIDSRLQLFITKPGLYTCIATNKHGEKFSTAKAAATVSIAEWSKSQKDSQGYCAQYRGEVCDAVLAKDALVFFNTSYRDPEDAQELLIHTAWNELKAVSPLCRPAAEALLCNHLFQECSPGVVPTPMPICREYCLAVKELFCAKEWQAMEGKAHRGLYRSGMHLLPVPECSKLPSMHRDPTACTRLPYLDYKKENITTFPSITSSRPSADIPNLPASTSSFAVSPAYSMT
The experiment is described as above.

In experiment [5] the target is T5, rat MuSK (rat, UniProt Q62838 22-494, limits assumed).
T5 construct: Coated on Biacore chip (200RU) or ELISA plate
T5 sequence (looked up): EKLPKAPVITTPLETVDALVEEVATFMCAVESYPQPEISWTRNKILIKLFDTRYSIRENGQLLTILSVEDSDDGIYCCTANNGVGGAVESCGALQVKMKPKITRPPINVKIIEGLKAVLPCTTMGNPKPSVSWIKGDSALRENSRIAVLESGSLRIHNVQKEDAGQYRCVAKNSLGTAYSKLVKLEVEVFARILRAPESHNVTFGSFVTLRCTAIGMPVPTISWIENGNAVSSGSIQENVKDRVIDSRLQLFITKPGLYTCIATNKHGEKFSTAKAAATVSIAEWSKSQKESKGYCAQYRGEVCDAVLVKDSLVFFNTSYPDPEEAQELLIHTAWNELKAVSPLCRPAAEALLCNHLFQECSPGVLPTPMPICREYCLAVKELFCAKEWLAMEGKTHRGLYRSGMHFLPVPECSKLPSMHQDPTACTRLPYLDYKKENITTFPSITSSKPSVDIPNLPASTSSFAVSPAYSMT
Put plainly: Biacore, MuSK on chip (200RU), 66.7 nM mAb, dissociation pH 7.4. As for the experimental part:
(§1) For affinity determination, a CMS chip was coated with cynomolgus monkey, rat and mouse MuSK (200RU) and 66.7 nM of antibody was applied and kinetic parameters calculated (Table 8). The following conclusions could be drawn: (1) 3B2g1m3 and 3B2g2m3 (m3 variants) show significant drop in affinity for MuSK for all species tested; (2) 3B2g1m2 and 3B2g2m2 (m2 variants) show some drop in affinity for MuSK; (3) 3B2g1m1, 3B2g2m1, 3B2g1m4, 3B2g2m4 (ml and m4 variants) show no drop in affinity for MuSK for all species tested; and (4) for all clones there is no difference between g1 and g2 variants (VL methionine versus serine in CDR3).
(In SPR one partner is held on a chip, and binding of the other changes the refractive index at the surface.)

Experiment [6] deals with T6, mouse MuSK (mouse, UniProt Q61006 22-494, limits assumed).
T6 construct: Coated on ELISA plates or on the Biacore chip; also called full length mouse MuSK; mouse MuSK (in house produced in HEK293 cells)
T6 sequence (looked up): T4 sequence (looked up)
The description is as above. As for the experimental part: as §1

Experiment [7] has as its target T7, cynomolgus monkey MuSK (cynomolgus monkey, UniProt A0A2K5USF6 24-487). Described as above. As for the experimental part: as §1
Experiment [8] concerns the target T5, rat MuSK. Put plainly: Biacore, MuSK on chip, association pH 7.4, dissociation pH 5.5. As for the experimental part:
as §1
(§2) In order to study pH dependent binding of our antibodies to MuSK, the same Biacore was used as above, but now dissociation was done at pH 5.5 instead of pH 7.4. […] The following conclusions could be drawn for the different variants: (1) 3B2g1m3 and 3B2g2m3 (m3 variants) show significant drop in affinity for MuSK for all species tested; (2) 3B2g1m2 and 3B2g2m2 (m2 variants) show some drop in affinity for MuSK; (3) 3B2g1m1, 3B2g2m1, 3B2g1m4, 3B2g2m4 (m1 and m4 variants) show no drop in affinity for MuSK for all species tested; and (4) for all clones there is no difference between g1 and g2 variants (VL methionine versus serine in CDR3).

The target in experiment [9] is T6, mouse MuSK. The experiment is described as above. Here is the method: as §1, §2
For experiment [10], the target named is T7, cynomolgus monkey MuSK. The description is as above. As for the experimental part: as §1, §2

Numbering of substitutions follows the chain as printed.

T7 sequence (A0A2K5USF6 entry or part of it): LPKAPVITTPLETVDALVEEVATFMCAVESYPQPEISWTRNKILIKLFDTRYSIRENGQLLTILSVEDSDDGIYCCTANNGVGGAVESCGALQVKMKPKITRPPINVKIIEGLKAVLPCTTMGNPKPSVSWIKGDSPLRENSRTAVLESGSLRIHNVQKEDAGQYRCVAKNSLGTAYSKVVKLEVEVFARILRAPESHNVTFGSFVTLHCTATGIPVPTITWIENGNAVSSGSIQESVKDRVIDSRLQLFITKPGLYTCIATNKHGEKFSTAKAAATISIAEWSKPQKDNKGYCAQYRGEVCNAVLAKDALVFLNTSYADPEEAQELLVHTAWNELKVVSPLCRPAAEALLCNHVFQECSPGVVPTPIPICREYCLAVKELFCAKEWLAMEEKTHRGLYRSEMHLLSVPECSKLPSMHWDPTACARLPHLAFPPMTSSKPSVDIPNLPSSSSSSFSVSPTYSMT

B1: X8 Fab (Fab, V domains shown)
VH: EVQLVESGGGLVQPGGSLRLSCAASGFTVSSSSIHWVRQAPGKGLEWVASISSSSGSTSYADSVKGRFTISADTSKNTAYLQMNSLRAEDTAVYYCARSWSYHPWYYHVGWYTGLDYWGQGTLVTVSS
VL: DIQMTQSPSSLSASVGDRVTITCRASQSVSSAVAWYQQKPGKAPKLLIYSASSLYSGVPSRFSGSRSGTDFTLTISSLQPEDFATYYCQQSSSSLITFGQGTKVEIK
notes: also called Fab Clone X8
As to B1, the dissociation constant Kd in experiment [1] was 1.4 nM; in experiment [2] it was 4.7 nM; in experiment [3] it was 1.69 nM; in experiment [4], 44 nM.

B2: 3B2g2m1 (antibody, human IgG1, V domains shown)
VH: EVQLLESGGGLVQPGGSLRLSCAASGFTFSDYGMSWVRQAPGKGLEWVSAIPWSGGSTYYKESVKGRFTISRDNSKNTLYLQMNSLRAEDTAVYYCAKRSGRIAFGALDAWGQGTLVTVSS
VL: QTVVTQEPSFSVSPGGTVTLTCGLSSGSVTSSNYPDWYQQTPGQAPRTLIYSTDSRHSGVPDRFSGSILGNKAALTITGAQADDESDYYCGLYSYSGSKNYVFGGGTKLTVL
notes: human IgG1-LALA backbone; produced in HEK293 cells; also called MuSK agonist antibody 3B2g2m1; MuSK-mAb 3B2g2m1
Take B2: the R0 in experiment [5] amounted to 160 RU; in experiment [6], 195 RU; in experiment [7] it was 144 RU; in [8] it was 174 RU; in experiment [9], 193 RU; in experiment [10], 151 RU. The koff in [5] was 0.00193 s⁻¹; in experiment [6], 0.00104 s⁻¹; in experiment [7] it was 0.00109 s⁻¹; in experiment [8], 0.00555 s⁻¹; in experiment [9] it was 0.00339 s⁻¹; in experiment [10], 0.00288 s⁻¹. For the same molecule, the kon is 1.4e+06 M⁻¹ s⁻¹ in experiment [5]; 1.32e+06 M⁻¹ s⁻¹ in [6]; 890000 M⁻¹ s⁻¹ in experiment [7]; 1.15e+06 M⁻¹ s⁻¹ in experiment [8]; 1.18e+06 M⁻¹ s⁻¹ in [9]; 850000 M⁻¹ s⁻¹ in experiment [10].

B3: 3B2g1m1 (antibody, human IgG1, V domains shown)
VH: B2 VH
VL: B2 VL with S94M
notes: human IgG1-LALA backbone; produced in HEK293 cells
In the case of B3, the R0 in experiment [5] was 157 RU; in [6], 193 RU; in experiment [7] it was 143 RU; in experiment [8], 166 RU; in experiment [9], 192 RU; in experiment [10] it was 147 RU. Also, the dissociation rate constant (koff) in experiment [5] was determined as 0.00192 s⁻¹; in experiment [6] it was 0.0011 s⁻¹; in [7], 0.00117 s⁻¹; in [8] it was 0.00595 s⁻¹; in experiment [9], 0.00339 s⁻¹; in experiment [10] it was 0.0029 s⁻¹. The kon in [5] was 1.32e+06 M⁻¹ s⁻¹; in experiment [6], 1.25e+06 M⁻¹ s⁻¹; in experiment [7], 840000 M⁻¹ s⁻¹; in [8], 1.16e+06 M⁻¹ s⁻¹; in experiment [9], 1.19e+06 M⁻¹ s⁻¹; in experiment [10], 810000 M⁻¹ s⁻¹.

B4: X7 Fab (Fab, V domains shown)
VH: EVQLVESGGGLVQPGGSLRLSCAASGFTLYSSSIHWVRQAPGKGLEWVASISSSYSSTYYADSVKGRFTISADTSKNTAYLQMNSLRAEDTAVYYCARLAGLYHYPGYLGLDYWGQGTLVTVSS
VL: DIQMTQSPSSLSASVGDRVTITCRASQSVSSAVAWYQQKPGKAPKLLIYSASSLYSGVPSRFSGSRSGTDFTLTISSLQPEDFATYYCQQSSRSSLLTFGQGTKVEIK
notes: also called Fab Clone X7
Take B4: the dissociation constant (Kd) in experiment [1] is 4.5 nM; in experiment [2], 12 nM; in [3] it was 6 nM; in [4] it was 16.2 nM.
